Results as given in patent publication US20150017115A1 (RAMOT AT TEL AVIV UNIVERSITY, published 2015).
Ends that are not written are not given here. CF = 5(6)-carboxyfluorescein

Molecular target: T1, Neural cell adhesion molecule (NCAM, CD56) (human, UniProt P13591 20-858)
T1 construct: whole, on cells
Experiment: confocal microscopy of Saos-2 cells with fluorescently labeled peptide
Description: Cell specificity and uptake of the fluorescently labeled peptides was monitored utilizing a Zeiss Meta LSM 510 confocal imaging system. Cells were plated on glass slides and incubated overnight. The following day cells were incubated with 100 μM of CF-NTP or CF-scrambled peptide for 30 minutes at 37° C., washed several times with PBS, fixated with 4% paraformaldehyde, stained with Hoechst stain and mounted on slides. In order to examine intracellular trafficking of the peptide, cells were incubated with the peptides in serum free medium, washed several times with cold PBS and incubated with […] AlexaFluor 594 human transferrin for 1 h at 37° C. Cells were washed several times with PBS, fixated with 4% PFA, stained with Hoechst stain and mounted on slides.
Binding of NTP (SEQ ID NO:1) to Saos-2 cells, compared to binding of sNTP (SEQ ID NO:2), was examined by confocal microscopy. FITC-labeled targeting peptides were used. […] In experiments with transferrin, peptide was seen as intracellular aggregates or vesicles, though not colocalized with transferrin.

T1 sequence (P13591 20-858): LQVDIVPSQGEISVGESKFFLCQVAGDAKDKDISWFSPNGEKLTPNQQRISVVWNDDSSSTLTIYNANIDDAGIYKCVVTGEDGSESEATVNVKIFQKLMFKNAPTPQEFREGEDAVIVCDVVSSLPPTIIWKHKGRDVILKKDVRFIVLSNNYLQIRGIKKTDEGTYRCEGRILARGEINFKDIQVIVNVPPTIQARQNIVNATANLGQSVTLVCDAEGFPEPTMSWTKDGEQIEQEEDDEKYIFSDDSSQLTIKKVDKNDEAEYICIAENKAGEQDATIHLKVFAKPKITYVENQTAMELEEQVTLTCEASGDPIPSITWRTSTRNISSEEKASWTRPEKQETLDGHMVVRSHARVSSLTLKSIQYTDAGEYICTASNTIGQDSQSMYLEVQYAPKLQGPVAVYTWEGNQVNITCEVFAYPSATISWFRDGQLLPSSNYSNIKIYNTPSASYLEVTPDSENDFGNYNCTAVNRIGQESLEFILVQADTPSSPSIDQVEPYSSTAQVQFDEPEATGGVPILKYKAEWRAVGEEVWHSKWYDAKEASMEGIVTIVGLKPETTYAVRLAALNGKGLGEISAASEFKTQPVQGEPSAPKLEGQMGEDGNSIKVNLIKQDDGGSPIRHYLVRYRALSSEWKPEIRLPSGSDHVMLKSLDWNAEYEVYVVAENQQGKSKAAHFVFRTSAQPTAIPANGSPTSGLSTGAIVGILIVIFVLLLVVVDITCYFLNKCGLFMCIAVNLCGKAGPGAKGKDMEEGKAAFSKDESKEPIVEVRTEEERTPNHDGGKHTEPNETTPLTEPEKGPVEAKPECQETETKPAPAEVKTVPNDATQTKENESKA

binding result: no binding (tested: 100 µM)
B1: scrambled NTP sequence (sNTP), fluorescein-labeled (peptide)
peptide: {CF}-GESDDEND
notes: also called scrambled peptide; CF-scrambled peptide
